# Assay results as given in US20080293916A1, “Hla-Binding Peptide, and Dna Fragment and Recombinant Vector Coding for Said Hla-Binding Peptide” (NEC CORPORATION, priority 2004, published 2008).
# Ends that are not written are not given here.
# B1: HLA-A24-binding peptide of SEQ ID NO 1 (WT1 peptide, SEQ NAME 356) (peptide)
# peptide: DFKDCERRF
# notes: Synthesised by the Fmoc solid-phase method, purity 95% or higher
# B2: HLA-A24-binding peptide of SEQ ID NO 29 (WT1 peptide, SEQ NAME 225) (peptide)
# peptide: NLYQMTSQL
# B3: HLA-A24-binding peptide of SEQ ID NO 30 (WT1 peptide, SEQ NAME 285) (peptide)
# peptide: QYRIHTHGV
# B4: HLA-A24-binding peptide of SEQ ID NO 2 (WT1 peptide, SEQ NAME 10) (peptide)
# peptide: ALLPAVPSL
# B5: HLA-A24-binding peptide of SEQ ID NO 3 (WT1 peptide, SEQ NAME 286) (peptide)
# peptide: YRIHTHGVF
# B6: HLA-A24-binding peptide of SEQ ID NO 4 (WT1 peptide, SEQ NAME 63) (peptide)
# peptide: PPPPPPHSF
# B7: HLA-A24-binding peptide of SEQ ID NO 5 (WT1 peptide, SEQ NAME 4) (peptide)
# peptide: DVRDLNALL
# B8: HLA-A24-binding peptide of SEQ ID NO 6 (WT1 peptide, SEQ NAME 70) (peptide)
# peptide: SFIKQEPSW
# B9: HLA-A24-binding peptide of SEQ ID NO 7 (WT1 peptide, SEQ NAME 64) (peptide)
# peptide: PPPPPHSFI
# B10: HLA-A24-binding peptide of SEQ ID NO 10 (WT1 peptide, SEQ NAME 441) (peptide)
# peptide: NMTKLQLAL
# notes: also called NMTKLQLAL
# B11: HLA-A24-binding peptide of SEQ ID NO 14 (WT1 peptide, SEQ NAME 280) (peptide)
# peptide: ILCGAQYRI
# notes: also called ILOGAQYRI
# B12: HLA-A2-binding peptide of SEQ ID NO 31 (WT1 peptide, SEQ NAME 242) (peptide)
# peptide: NLGATLKGV
# B13: HLA-A2-binding peptide of SEQ ID NO 33 (WT1 peptide, SEQ NAME 10) (peptide)
# peptide: ALLPAVPSL
# B14: HLA-A2-binding peptide of SEQ ID NO 38 (WT1 peptide, SEQ NAME 214) (peptide)
# peptide: ALLLRTPYS
# B15: HLA-A2-binding peptide of SEQ ID NO 39 (WT1 peptide, SEQ NAME 191) (peptide)
# peptide: QQYSVPPPV
# B16: HLA-A2-binding peptide of SEQ ID NO 40 (WT1 peptide, SEQ NAME 280) (peptide)
# peptide: ILCGAQYRI
# notes: also called ILOGAQYRI
# B17: HLA-A2-binding peptide of SEQ ID NO 43 (WT1 peptide, SEQ NAME 250) (peptide)
# peptide: VAAGSSSSV
# B18: HLA-A2-binding peptide of SEQ ID NO 44 (WT1 peptide, SEQ NAME 225) (peptide)
# peptide: NLYQMTSQL
# B19: HLA-A2-binding peptide of SEQ ID NO 49 (WT1 peptide, SEQ NAME 441) (peptide)
# peptide: NMTKLQLAL
# notes: also called NMTKLQLAL
# B20: HLA-A2-binding peptide of SEQ ID NO 51 (WT1 peptide, SEQ NAME 292) (peptide)
# peptide: GVFRGIQDV
# Biological target: T1, HLA-A24 molecule (product of the HLA-A*2402 gene) on C1R-A24 cells (human)
# T1 construct: MHC class I molecule on cells; Emptied by acid treatment (pH 3.3, 30 s), then reassociated with added purified beta2m and the test peptide; also called HLA-A*2402 molecule; human HLA-A24 molecule
# Test: reassociation on acid-stripped C1R-A24 cells with added beta2m, mAb 17A12 staining, flow cytometry
# Settings: not given
row,Molecule,-log Kd
1,B1,4.4 -log Kd (Kd in molar concentration)
2,B2,4.38 -log Kd (Kd in molar concentration)
3,B3,5.62 -log Kd (Kd in molar concentration)
4,B4,9.16 -log Kd (Kd in molar concentration)
5,B5,4.39 -log Kd (Kd in molar concentration)
6,B6,4.4 -log Kd (Kd in molar concentration)
7,B7,4.45 -log Kd (Kd in molar concentration)
8,B8,8.16 -log Kd (Kd in molar concentration)
9,B9,4.4 -log Kd (Kd in molar concentration)
10,B10,6.38 -log Kd (Kd in molar concentration)
11,B11,5.9 -log Kd (Kd in molar concentration)

# Biological target: T2, HLA-A2 molecule (product of the HLA-A*0201 gene) on JY cells (human)
# T2 construct: MHC class I molecule on cells; Emptied by acid treatment (pH 3.8, 30 s), then reassociated with added purified beta2m and the test peptide; also called HLA-A*0201 molecule; human HLA-A2 molecule
# Test: reassociation on acid-stripped JY cells with added beta2m, mAb BB7.2 staining, flow cytometry
# Settings: not given
row,Molecule,-log Kd
1,B12,5.09 -log Kd (Kd in molar concentration)
2,B13,7.84 -log Kd (Kd in molar concentration)
3,B14,5.33 -log Kd (Kd in molar concentration)
4,B15,5.49 -log Kd (Kd in molar concentration)
5,B16,5.12 -log Kd (Kd in molar concentration)
6,B17,5 -log Kd (Kd in molar concentration)
7,B18,5.83 -log Kd (Kd in molar concentration)
8,B19,5.43 -log Kd (Kd in molar concentration)
9,B20,5.85 -log Kd (Kd in molar concentration)

# Biological target: HLA-A2 molecule, product of the HLA-A*0201 gene (Homo sapiens, UniProt P04439, D140Y/D185E/D98H/E176V/E277Q/G131W/G231S/I119V/I121R/I166T/I218V/L300P/L318F/N151K/N90K/P208A/P217A/Q86G/Q94H/R138H/R169H/T345S)
# Test: Experiment of binding peptide to HLA-A2 molecule (JY cells, flow cytometer)
# Settings: not given
# Protocol: (§1) <Experiment of Binding Peptide to HLA-A2 Molecule>
# (§2) JY cells were first exposed to acidic conditions at a pH of 3.8 for 30 seconds, thus dissociating and removing a light chain β2m and an endogenous peptide, which were noncovalently associated with the HLA-A*0201 molecule. After neutralization, a reassociation experiment was carried out.
# (§3) The above-mentioned JY cells and the purified β2m were added to stepped dilutions of peptide for which the binding ability would be measured, and incubation was carried out on ice for 4 hours. HLA-A*0201 molecules that had reassociated up to this point were stained using the associating type specific fluorescently-labeled monoclonal antibody BB7.2.
# (§4) Subsequently, the amount of fluorescence per cell was measured using a flow cytometer and a dissociation constant Kd value in molar concentration was calculated by a published method (Udaka et al., Immunogenetics, 51, 816-828, 2000).
row,Molecule,Kd
1,ALLLRTPYS [compound 38],4.69 µM
2,ALLPAVPSL [compound 33],0.0143 µM
3,GVFRGIQDV [compound 51],1.41 µM
4,ILCGAQYRI [compound 40],7.51 µM
5,NLGATLKGV [compound 31],8.17 µM
6,NLYQMTSQL [compound 44],1.49 µM
7,NMTKLQLAL [compound 49],3.71 µM
8,QQYSVPPPV [compound 39],3.24 µM

# Same assay, conditions: −log Kd value (Kd in molar concentration); HLA-A2, JY cells, on ice 4 hours; read-out: BINDING EXPERIMENT DATA (converted)
row,Molecule,Kd
1,VAAGSSSSV [compound 43],9.95 µM

# Test system: human HLA-A type molecule
# Test: Binding experiment, result stated in words for HLA-A type molecule
# Settings: not given
# Protocol: <Experiment of Binding Peptide to HLA-A24 Molecule>
# The ability of a peptide to bind to an HLA-A24 molecule, which is a product of the HLA-A*2402 gene, was measured using C1R-A24 cells expressing the HLA-A24 molecule (cells prepared by Professor Masafumi Takiguchi, Kumamoto University being supplied with permission by Assistant Professor Masaki Yasukawa, Ehime University).
# C1R-A24 cells were first exposed to acidic conditions at a pH of 3.3 for 30 seconds, thus dissociating and removing a light chain β2m, which is associated with HLA class I molecules in common, and an endogenous peptide originally bound to the HLA-A*2402 molecule. After neutralization, purified β2m was added to C1R-A24 cells, the obtained product was added to serial dilutions of a peptide, and incubated on ice for 4 hours. Staining was carried out using fluorescently labeled monoclonal antibody 17A12, which recognizes association (MHC-pep) of the three members, that is, HLA-A*2402 molecule, the peptide, and β2m, which had reassociated during the incubation.
# Subsequently, the MHC-pep count per C1R-A24 cell (proportional to the strength of fluorescence of the above-mentioned fluorescent antibody) was quantitatively measured using an FACScan fluorescence-activated cell sorter (Becton Dickinson Biosciences). A binding dissociation constant Kd value between the HLA-A24 molecule and the peptide was calculated from the average strength of fluorescence per cell by a published method (Udaka et al., Immunogenetics, 51, 816-828, 2000).
# as §1, §2, §3, §4
row,Molecule,binding to a human HLA-A type molecule (in words)
1,ALLPAVPSL [compound 2],experimentally confirmed to bind
2,DFKDCERRF [compound 1],experimentally confirmed to bind
3,DVRDLNALL [compound 5],experimentally confirmed to bind
4,ILCGAQYRI [compound 14],experimentally confirmed to bind
5,NLYQMTSQL [compound 29],experimentally confirmed to bind
6,NMTKLQLAL [compound 10],experimentally confirmed to bind
7,PPPPPHSFI [compound 7],experimentally confirmed to bind
8,PPPPPPHSF [compound 4],experimentally confirmed to bind
9,QYRIHTHGV [compound 30],experimentally confirmed to bind
10,SFIKQEPSW [compound 6],experimentally confirmed to bind
11,YRIHTHGVF [compound 3],experimentally confirmed to bind
